Assay results: patent US10941182 (Amgen, dated 2021)
Starred links: 1 amine or outer side, 2 acyl side, 3 side chain; linkers in the order of their positions; H or OH if unused. Non-standard residues stand in square brackets, D forms with d. *: point of attachment. dBip = N[C@H](Cc1ccc(-c2ccccc2)cc1)C(=O)O; Oic = O=C(O)[C@@H]1C[C@@H]2CCCC[C@@H]2N1; Phe(4-Cl) = N[C@@H](Cc1ccc(Cl)cc1)C(=O)O; dPhe(4-Cl) = N[C@H](Cc1ccc(Cl)cc1)C(=O)O; Phe(4-I) = N[C@@H](Cc1ccc(I)cc1)C(=O)O; γGlu = O=C(O)[C@H](CCC(=O)[*:2])N[*:1]; NMeR = CN[C@@H](CCCNC(=N)N)C(=O)O; Tridecanoyl = CCCCCCCCCCCCC(=O)*; hArg = N=C(N)NCCCC[C@H](N)C(=O)O; dTic = O=C(O)[C@H]1Cc2ccccc2CN1; Cha = N[C@@H](CC1CCCCC1)C(=O)O; NMeL = CN[C@@H](CC(C)C)C(=O)O; Tle = CC(C)(C)[C@H](N)C(=O)O; Nle = CCCC[C@H](N)C(=O)O; Deg = CCC(N)(CC)C(=O)O; AEEA = NCCOCCOCC(=O)O; Aib = CC(C)(N)C(=O)O; BLeu = β-leucine

Key:
[1] = target: T1, human APJ receptor (human, UniProt P35414 1-380); assay: cell-based or functional assay
T1 sequence (looked up): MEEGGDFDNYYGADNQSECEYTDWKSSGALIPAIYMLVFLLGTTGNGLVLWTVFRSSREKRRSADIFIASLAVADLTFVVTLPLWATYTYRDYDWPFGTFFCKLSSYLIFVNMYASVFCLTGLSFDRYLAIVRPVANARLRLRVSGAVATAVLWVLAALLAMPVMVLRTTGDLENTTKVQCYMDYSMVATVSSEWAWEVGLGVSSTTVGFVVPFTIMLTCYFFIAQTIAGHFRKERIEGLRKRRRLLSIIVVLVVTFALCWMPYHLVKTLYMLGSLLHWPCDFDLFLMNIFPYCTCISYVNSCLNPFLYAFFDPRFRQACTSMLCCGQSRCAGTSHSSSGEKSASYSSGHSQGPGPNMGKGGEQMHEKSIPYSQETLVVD

[2] = target: T2, rat APJ receptor (rat, UniProt Q9JHG3 1-377); assay: cell-based or functional assay
T2 sequence (looked up): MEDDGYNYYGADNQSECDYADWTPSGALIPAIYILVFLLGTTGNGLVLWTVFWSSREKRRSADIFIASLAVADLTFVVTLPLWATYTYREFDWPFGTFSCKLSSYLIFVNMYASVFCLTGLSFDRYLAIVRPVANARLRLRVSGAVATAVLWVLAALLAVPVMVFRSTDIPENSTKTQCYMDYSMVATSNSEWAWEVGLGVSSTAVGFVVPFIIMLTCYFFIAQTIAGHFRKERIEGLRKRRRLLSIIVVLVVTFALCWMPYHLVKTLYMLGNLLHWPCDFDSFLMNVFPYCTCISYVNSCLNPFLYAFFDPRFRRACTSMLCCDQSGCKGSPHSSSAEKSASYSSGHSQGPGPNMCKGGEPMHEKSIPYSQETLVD

B1: apelin polypeptide SEQ ID NO: 272 (peptide)
peptide: Tridecanoyl-[γGlu][AEEA][AEEA][dQ][hArg]P[dR][Cha]SHKG[Oic][Tle]P[Phe(4-Cl)]-OH
SMILES: CCCCCCCCCCCCC(=O)N[C@@H](CCC(=O)NCCOCCOCC(=O)NCCOCCOCC(=O)N[C@H](CCC(N)=O)C(=O)N[C@@H](CCCCNC(=N)N)C(=O)N1CCC[C@H]1C(=O)N[C@H](CCCNC(=N)N)C(=O)N[C@@H](CC1CCCCC1)C(=O)N[C@@H](CO)C(=O)N[C@@H](Cc1c[nH]cn1)C(=O)N[C@@H](CCCCN)C(=O)NCC(=O)N1[C@H](C(=O)N[C@H](C(=O)N2CCC[C@H]2C(=O)N[C@@H](Cc2ccc(Cl)cc2)C(=O)O)C(C)(C)C)C[C@@H]2CCCC[C@@H]21)C(=O)O
B1 was tested, and the “EC50 Human APJ Receptor” value [1] was 16.8 nM and the “EC50 Rat APJ Receptor” value [2] was 11.5 nM.

B2: apelin polypeptide SEQ ID NO: 21 (peptide)
peptide: Ac-[hArg][hArg]Q[hArg][Oic][dR][NMeL]SHKG[Oic][Phe(4-I)]P[dBip]-OH
SMILES: CC(=O)N[C@@H](CCCCNC(=N)N)C(=O)N[C@@H](CCCCNC(=N)N)C(=O)N[C@@H](CCC(N)=O)C(=O)N[C@@H](CCCCNC(=N)N)C(=O)N1[C@H](C(=O)N[C@H](CCCNC(=N)N)C(=O)N(C)[C@@H](CC(C)C)C(=O)N[C@@H](CO)C(=O)N[C@@H](Cc2c[nH]cn2)C(=O)N[C@@H](CCCCN)C(=O)NCC(=O)N2[C@H](C(=O)N[C@@H](Cc3ccc(I)cc3)C(=O)N3CCC[C@H]3C(=O)N[C@H](Cc3ccc(-c4ccccc4)cc3)C(=O)O)C[C@@H]3CCCC[C@@H]32)C[C@@H]2CCCC[C@@H]21
For B2, the “EC50 Human APJ Receptor” value [1] was 0.57 nM and the “EC50 Rat APJ Receptor” value [2] was 1.8 nM.

B3: apelin polypeptide SEQ ID NO: 270 (peptide)
peptide: Tridecanoyl-[γGlu][AEEA][AEEA][dQ][hArg]P[dR][Cha]SHKG[Oic][Nle][Aib][Phe(4-Cl)]-OH
SMILES: CCCCCCCCCCCCC(=O)N[C@@H](CCC(=O)NCCOCCOCC(=O)NCCOCCOCC(=O)N[C@H](CCC(N)=O)C(=O)N[C@@H](CCCCNC(=N)N)C(=O)N1CCC[C@H]1C(=O)N[C@H](CCCNC(=N)N)C(=O)N[C@@H](CC1CCCCC1)C(=O)N[C@@H](CO)C(=O)N[C@@H](Cc1c[nH]cn1)C(=O)N[C@@H](CCCCN)C(=O)NCC(=O)N1[C@H](C(=O)N[C@@H](CCCC)C(=O)NC(C)(C)C(=O)N[C@@H](Cc2ccc(Cl)cc2)C(=O)O)C[C@@H]2CCCC[C@@H]21)C(=O)O
For B3, the “EC50 Human APJ Receptor” value [1] was 1.76 nM and the “EC50 Rat APJ Receptor” value [2] was 1.49 nM.

B4: apelin polypeptide SEQ ID NO: 269 (peptide)
peptide: Tridecanoyl-[γGlu][AEEA][AEEA][dQ][hArg]P[dR][Cha]SHKG[Oic][Nle]P[dTic]-OH
SMILES: CCCCCCCCCCCCC(=O)N[C@@H](CCC(=O)NCCOCCOCC(=O)NCCOCCOCC(=O)N[C@H](CCC(N)=O)C(=O)N[C@@H](CCCCNC(=N)N)C(=O)N1CCC[C@H]1C(=O)N[C@H](CCCNC(=N)N)C(=O)N[C@@H](CC1CCCCC1)C(=O)N[C@@H](CO)C(=O)N[C@@H](Cc1c[nH]cn1)C(=O)N[C@@H](CCCCN)C(=O)NCC(=O)N1[C@H](C(=O)N[C@@H](CCCC)C(=O)N2CCC[C@H]2C(=O)N2Cc3ccccc3C[C@@H]2C(=O)O)C[C@@H]2CCCC[C@@H]21)C(=O)O
With B4 the “EC50 Human APJ Receptor” value [1] was 73 nM and the “EC50 Rat APJ Receptor” value [2] was 52.3 nM.

In the case of Tridecanoyl-[γGlu][AEEA][AEEA][dQ][hArg]P[NMeR][BLeu]SHKG[Oic][Nle]P[Phe(4-Cl)]-OH [apelin polypeptide SEQ ID NO: 275], the “EC50 Human APJ Receptor” value [1] is reported as 3.43 nM and the “EC50 Rat APJ Receptor” value [2] is reported as 19.3 nM.

B5: apelin polypeptide SEQ ID NO: 271 (peptide)
peptide: Tridecanoyl-[γGlu][AEEA][AEEA][dQ][hArg]P[dR][Cha]SHKG[Oic][Nle][Deg][Phe(4-Cl)]-OH
SMILES: CCCCCCCCCCCCC(=O)N[C@@H](CCC(=O)NCCOCCOCC(=O)NCCOCCOCC(=O)N[C@H](CCC(N)=O)C(=O)N[C@@H](CCCCNC(=N)N)C(=O)N1CCC[C@H]1C(=O)N[C@H](CCCNC(=N)N)C(=O)N[C@@H](CC1CCCCC1)C(=O)N[C@@H](CO)C(=O)N[C@@H](Cc1c[nH]cn1)C(=O)N[C@@H](CCCCN)C(=O)NCC(=O)N1[C@H](C(=O)N[C@@H](CCCC)C(=O)NC(CC)(CC)C(=O)N[C@@H](Cc2ccc(Cl)cc2)C(=O)O)C[C@@H]2CCCC[C@@H]21)C(=O)O
In the case of B5, the “EC50 Human APJ Receptor” value [1] is reported as 11.8 nM and the “EC50 Rat APJ Receptor” value [2] is reported as 7.88 nM.

B6: apelin polypeptide SEQ ID NO: 267 (peptide)
peptide: Tridecanoyl-[γGlu][AEEA][AEEA]Q[dR]P[NMeR][Cha]SHKG[Oic][Nle]P[Phe(4-Cl)]-OH
SMILES: CCCCCCCCCCCCC(=O)N[C@@H](CCC(=O)NCCOCCOCC(=O)NCCOCCOCC(=O)N[C@@H](CCC(N)=O)C(=O)N[C@H](CCCNC(=N)N)C(=O)N1CCC[C@H]1C(=O)N(C)[C@@H](CCCNC(=N)N)C(=O)N[C@@H](CC1CCCCC1)C(=O)N[C@@H](CO)C(=O)N[C@@H](Cc1c[nH]cn1)C(=O)N[C@@H](CCCCN)C(=O)NCC(=O)N1[C@H](C(=O)N[C@@H](CCCC)C(=O)N2CCC[C@H]2C(=O)N[C@@H](Cc2ccc(Cl)cc2)C(=O)O)C[C@@H]2CCCC[C@@H]21)C(=O)O
B6 was tested, and the “EC50 Human APJ Receptor” value [1] was 0.753 nM and the “EC50 Rat APJ Receptor” value [2] was 17.6 nM.

Tridecanoyl-[γGlu][AEEA][AEEA][BLeu][hArg]P[dR][Cha]SHKG[Oic][Nle]P[Phe(4-Cl)]-OH [apelin polypeptide SEQ ID NO: 278] was tested, and the “EC50 Human APJ Receptor” value [1] was 10.1 nM and the “EC50 Rat APJ Receptor” value [2] was 14.5 nM.

In the case of Ac-[hArg][hArg]Q[dR]P[dR][NMeL]SHKG[Oic][Phe(4-I)]P[dBip]-OH [apelin polypeptide SEQ ID NO: 20], the “EC50 Human APJ Receptor” value [1] is reported as 0.189 nM and the “EC50 Rat APJ Receptor” value [2] is reported as 0.706 nM.

B7: apelin polypeptide SEQ ID NO: 273 (peptide)
peptide: Tridecanoyl-[γGlu][AEEA][AEEA][dQ][hArg]P[dR][Cha]S[Aib]KG[Oic][Nle]P[Phe(4-Cl)]-OH
SMILES: CCCCCCCCCCCCC(=O)N[C@@H](CCC(=O)NCCOCCOCC(=O)NCCOCCOCC(=O)N[C@H](CCC(N)=O)C(=O)N[C@@H](CCCCNC(=N)N)C(=O)N1CCC[C@H]1C(=O)N[C@H](CCCNC(=N)N)C(=O)N[C@@H](CC1CCCCC1)C(=O)N[C@@H](CO)C(=O)NC(C)(C)C(=O)N[C@@H](CCCCN)C(=O)NCC(=O)N1[C@H](C(=O)N[C@@H](CCCC)C(=O)N2CCC[C@H]2C(=O)N[C@@H](Cc2ccc(Cl)cc2)C(=O)O)C[C@@H]2CCCC[C@@H]21)C(=O)O
In the case of B7, the “EC50 Human APJ Receptor” value [1] is reported as 1.67 nM and the “EC50 Rat APJ Receptor” value [2] is reported as 5.09 nM.

B8: apelin polypeptide SEQ ID NO: 277 (peptide)
peptide: Tridecanoyl-[γGlu][AEEA][AEEA][dL][hArg]P[dR][Cha]SHKG[Oic][Nle]P[Phe(4-Cl)]-OH
SMILES: CCCCCCCCCCCCC(=O)N[C@@H](CCC(=O)NCCOCCOCC(=O)NCCOCCOCC(=O)N[C@H](CC(C)C)C(=O)N[C@@H](CCCCNC(=N)N)C(=O)N1CCC[C@H]1C(=O)N[C@H](CCCNC(=N)N)C(=O)N[C@@H](CC1CCCCC1)C(=O)N[C@@H](CO)C(=O)N[C@@H](Cc1c[nH]cn1)C(=O)N[C@@H](CCCCN)C(=O)NCC(=O)N1[C@H](C(=O)N[C@@H](CCCC)C(=O)N2CCC[C@H]2C(=O)N[C@@H](Cc2ccc(Cl)cc2)C(=O)O)C[C@@H]2CCCC[C@@H]21)C(=O)O
In the case of B8, the “EC50 Human APJ Receptor” value [1] is reported as 16.1 nM and the “EC50 Rat APJ Receptor” value [2] is reported as 20.9 nM.

In the case of Tridecanoyl-[γGlu][AEEA][AEEA][dQ][hArg]P[dR][BLeu]SHKG[Oic][Nle]P[Phe(4-Cl)]-OH [apelin polypeptide SEQ ID NO: 274], the “EC50 Human APJ Receptor” value [1] is reported as 8.04 nM and the “EC50 Rat APJ Receptor” value [2] is reported as 46.2 nM.

B9: apelin polypeptide SEQ ID NO: 266 (peptide)
peptide: Tridecanoyl-[γGlu][AEEA][AEEA]Q[dR]P[dR][Cha]SHKG[Oic][Nle]P[dPhe(4-Cl)]-OH
SMILES: CCCCCCCCCCCCC(=O)N[C@@H](CCC(=O)NCCOCCOCC(=O)NCCOCCOCC(=O)N[C@@H](CCC(N)=O)C(=O)N[C@H](CCCNC(=N)N)C(=O)N1CCC[C@H]1C(=O)N[C@H](CCCNC(=N)N)C(=O)N[C@@H](CC1CCCCC1)C(=O)N[C@@H](CO)C(=O)N[C@@H](Cc1c[nH]cn1)C(=O)N[C@@H](CCCCN)C(=O)NCC(=O)N1[C@H](C(=O)N[C@@H](CCCC)C(=O)N2CCC[C@H]2C(=O)N[C@H](Cc2ccc(Cl)cc2)C(=O)O)C[C@@H]2CCCC[C@@H]21)C(=O)O
B9 was tested, and the “EC50 Human APJ Receptor” value [1] was 5.81 nM and the “EC50 Rat APJ Receptor” value [2] was 33.2 nM.
